Data from the NTF2 design screens of Basanta et al. (2020).

Assay: protease stability score; higher = more stable; yeast display proteolysis, trypsin and chymotrypsin;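 further: log10 excess protease needed over predicted unfolded state with 0 meaning unfolded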

Row | Sequence | protease stability score
1 | DEKKTKELLKEAMKALHNGNEEKVKKLGGPDVEVHAFNYRNRGPEAMVEMARLAQRVGTEFQYREERFEGNRVKTVVEVTVGGDTVRYEVQATVEGGEVKRWEAHVDEKFIEHVEKS | 0.174
2 | DEKKVEKVVREALKAMINGDKDKVRKLLKPDVQFHAGDVEMHGVDQVVKYYEKIKRQGVEMHIKEVKVTGNEAEVKYDLRADGTEATVKAKVVVENEKVDHVTAELTKTYDDLVKKS | -0.107
3 | DEKKVEQAEQWIRNLQTGDPDKANDMFDPNAEITVGDHVVHGREEFKDRMEKDMRNMRIKFEDVHASVKNGRVTVSVDQVDTNNGKPKRYRYNLTIDLRNGKVTEIVNKEDK | 0.066
4 | DEKKVHEVLKKLRKALEQGNVDEMVKMGKPDVEFHFFDTKIEGLDQLHEYYKTMKDHGAELHVEETKVEGNKVEVVYVLKLGGTQVKVTAQIEIKDERVVRARAENTEEYKKRVKKG | 0.359
5 | DEKKVKEIAKKAFEYAVKGNEEQLQKLVKPNVDYEYVDEKYEGEDVVKKMVRLLKKVGAEVKIKRYEVKGDTVKADFDYNKGDKTVRTTAEVVYNGDKITQARLELTDEVKKIMHQG | 0.681
6 | DEKKVKELIDQVVEAIQKGDVEHLLKLGKPDVTFTVGDVEIRGLEHLKKYYKQVKDDGAELHVKKVEVKGNTAQVHYDMKYGGTKATVTVNIEAKDHKVDRAEAKMDKDYLKYVRDG | 0.644
7 | DEKKVKELLVRAVQAYVNGNTEEVKKLLKEDVQLHAVNHTYHGVEQLLKVVKRMKEYGIKLQVTDHKVDGDKVDVKVQFHAAGETKEVTFRVQADGGKVDKVEVHVTEEVQKLAEKG | 1.05
8 | DEKKVKELVDTLFDVMRKGDAERFRRYLKPDVRFEFGDITMQGPDQMEKYYRQDQKYGNEMHIKHKEVHGDRAKVTYDVEIKGTRATVEAEVHVRDEKVDEAKAEFDEDYKKYFTKG | -0.121
9 | DEKKVKEMVTEAQKAIENNDSDTMAKFLKPDVEFHFGDVKLKGPEDVKKYYDKVRRVGMEAHVKEAEVKGDTAQVVYDVEVKGKRVTITARVQMKDERVDRAEVELDEDYAREVTEG | -0.02
10 | DEKKVKKVADKVMRVAANGDNETARKLGKPDVTFEAGSNKMRGVEQVDKYYEKVKRQGNELHIKEVKVEGDRAKVKYDIKIGGTEMTVTAEVYIENDKVEKARIEMDEDYEKKVTKG | -0.338
11 | DEKKVLEVIQKFAEAIKDGNAEQAKKLGKEGIQVHIGDETINGPDQVEKYVKKVKDLGNEVHYKEKEVKGDEVTVHTEVKMGDQTVHFEVHYRAKDDKVEQFHVKFDKDEARRFKTS | -0.27
12 | DEKKVQEVAKDALKVDLQGDVEKMKKLGKPDVTFQLGDQEVHGPDDLKKYYDKVKRLGEEIHVKKVKVEGDKMQAHYELRVAGKQATVTVEVTVKDEKVEEARAEMTEKYKKALEEG | -0.154
13 | DEKKVREFMERLFKAAENGNKDELRKVLMPNVKYQYVDKEKEGEEVAKEVAKAVKKVGAEIKKQEERVKGDTVEAVFQYKQGDTTVQTTVQIKYEGDKAKEVRVKLSDEVKKIVHRG | -0.079
14 | DEKKWEQWARHFNQLMKQNDPDTLMQLFDPNARVKYGDKEVHGRTQIVKMWQTLVEQVDHIRIKNYSVSGDHVVIEIIVVVNGQEVEFVFRARVHNGTIKSASIDYRNEEHYKRAQG | 0.264
15 | DEKKYEELLREVQKYLYQGNYEEAQKVLAPNVVFEVGDYKMNGLEQVMKYYKKVKDRGAEIHVEEMEVTGHKARVVYKLHVGGRTIEVTAEVKVEDERVKKARVEVSEEYVKHVQHG | 1.61
16 | DEKLEKLVDEFIEAEHTNNPEELKKLIDPNARFRIGDKDVHGREEWNEDMKRINDELRIEVHIKHVDARGDHVDIEMEFTFNVNGRPVNQTAKQQIKFENGRMKRVVNNVSEDQVEQLHR | 0.194
17 | DEKLHHQIKEFIKAMKNGDPDKVQELADPNAEFRVGDKEIHGMDKYHKTVHDRHRKQRVNIQLHQLTVKGDKAEFVVTIDVQHNGQPSNDVYRAVIKLKNGKIQVVDRQKDQ | -0.138
18 | DEKLIKLLKSLLKIQESGDPDKLRTMADPNVRFNIGDKVFHGMEEYATHVVELRKQAHIRIERLSNSDSNGVVNADFTRVNNHNGKPDSRRQEVTYVAHGDRIKEVNNQDHQ | -0.503
19 | DEKLLDLLEKILQAEHENDPDQARELADPNVKYRYGDKSVNGRHEWVKDLERKTQKIKVEYKRIQVDAKGDKAHANVHMTVNHNGKPDKVLMEIVVRAHNGKVTELTVHEDK | 0.041
